Data: publication PMC2686699, “The interaction between the measles virus nucleoprotein and the Interferon Regulator Factor 3 relies on a specific cellular environment” (Virology Journal, 2009)

Target: the molecule itself
Assay: SEC-MALS; data not shown; purified IRF-3 RD in various buffers, including 10 mM sodium phosphate pH 7 or buffer A (50 mM sodium phosphate pH 8, 300 mM NaCl, 10 mM imidazole); the method is told only in general (SEC-MALS in various buffers)

B1: IRF-3 RD (regulatory domain of IRF-3, residues 175-427, N-terminal hexahistidine tag; IRF-3 RDHN) (domain or fragment, human, UniProt Q14653 175-427, looked up)
chain: SLDNPTPFPNLGPSENPLKRLLVPGEEWEFEVTAFYRGRQVFQQTISCPEGLRLVGSEVGDRTLPGWPVTLPDPGMSLTDRGVMSYVRHVLSCLGGGLALWRAGQWLWAQRLGHCHTYWAVSEELLPNSGHGPDGEVPKDKEGGVFDLGPFIVDLITFTEGSGRSPRYALWFCVGESWPQDQPWTKRLVMVKVVPTCLRALVEMARVGGASSLENTVDLHISNSHPLSLTSDQYKAYLQDLVEGMDFQGPGES
notes: Human IRF-3, regulatory domain, residues 175-427; Dimer or monomer according to the buffer (monomer in buffers C and D); Also made uniformly 15N-labelled for NMR; source: E. coli Rosetta [DE3], purified (Talon IMAC, Hi-Trap Q, Superdex 200); not shown: His6, N-terminal, kept
B1 was tested, and the “stoichiometry N” value was 2.
